According to the supplement of paper PMC10126150:
± gives the standard deviation of the averaged measurements.

Test system: ATP
Assay: switch fluorescence ratio, 500 uM ATP over buffer (Cy3 cluster intensity, sum of 5 cycles each) (fold (ratio)); higher = stronger signal-on switching upon ATP binding; sequences stand for … in TCGTCGGCAGCGTCAGATGTGTATAAGAGACAGTTTTTTTTTTTTTTTTTTTTTTTTT…TC
Details: aptamer strand: ATP DNA aptamer (quencher-CACCTGGGGGAGTATTGCGGAGGAAGG + anchor), 100 nM annealed; ATP concentration: 500 uM
Method in brief: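 Between each of five buffer/ATP cycles, the flow-cell was stripped with NaOH and re-annealed. Each cycle imaged Cy3-labelled switching-strand clusters, annealed to 100 nM quencher-labelled ATP aptamer on a modified Illumina MiSeq flow-cell, first in selection buffer and then after 15 min with 500 uM ATP at 22 °C. The fluorescence ratio is summed target-cycle over summed buffer-cycle Cy3 intensity per cluster, averaged per switch-domain sequence, with clusters outside 100-1000 RFU excluded.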
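Also: ATP exposure 15 min at 22 °C before imaging.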

Row | Sequence | switch fluorescence ratio
1 | AAATGGTATC | 1.01 ± 0.028
2 | AAATGGTGGT | 1.02 ± 0.018
3 | AAATGGTTCC | 1.72 ± 1
4 | AAATGTCCGG | 1 ± 0.024
5 | AAATGTGAAT | 1 ± 0.029
6 | AAATGTGGAA | 0.994 ± 0.018
7 | AAATGTGTCT | 1.01 ± 0.04
8 | AAATGTTACA | 1.06 ± 0.021
9 | AAATGTTTAT | 0.9804 ± 0.0017
10 | AAATTAAAAG | 0.984 ± 0.031
11 | AAATTAATGT | 1 ± 0.018
12 | AAATTAGCGG | 0.987 ± 0.032
13 | AAATTAGGCG | 0.975 ± 0.021
14 | AAATTATGGA | 0.969 ± 0.075
15 | AAATTCGTAT | 0.9976 ± 0.0068
16 | AAATTGAGAG | 1.004 ± 0.0021
17 | AAATTGGGCT | 1.03 ± 0.026
18 | AAATTGGTCC | 1.02 ± 0.016
19 | AAATTTATAT | 1.02 ± 0.015
20 | AAATTTCGTT | 0.966 ± 0.016
21 | AAATTTGTTA | 0.985 ± 0.04
22 | AAATTTTCGA | 1.018 ± 0.0088
23 | AAATTTTTTG | 1 ± 0.023
24 | AACAAATTTT | 1.012 ± 0.0097
25 | AACAACCGGT | 0.961 ± 0.031

Row | Sequence | switch fluorescence ratio
26 | AACAACTCCA | 1.015 ± 0.0036
27 | AACAAGTAAT | 1 ± 0.018
28 | AACAATTATT | 1.04 ± 0.048
29 | AACAGGCGGC | 0.9872 ± 0.00069
30 | AACAGGGCGG | 1.01 ± 0.015
31 | AACATATCTT | 0.996 ± 0.014
32 | AACATATGTT | 0.972 ± 0.025
33 | AACATCGTAC | 1.12 ± 0.06
34 | AACATCTAGA | 0.965 ± 0.011
35 | AACATGAGGA | 1 ± 0.02
36 | AACATTATGT | 1 ± 0.04
37 | AACATTGTTT | 1.01 ± 0.016
38 | AACCAAGGTT | 1.05 ± 0.082
39 | AACCAGGGGC | 1.37 ± 0.091
40 | AACCAGTGAT | 1.05 ± 0.017
41 | AACCATTAGG | 0.9956 ± 0.0053
42 | AACCCAATTT | 0.985 ± 0.015
43 | AACCCGGGGT | 0.99 ± 0.045
44 | AACCCTTTCA | 1.06 ± 0.035
45 | AACCGCCCTT | 1.27 ± 0.15
46 | AACCGGGATC | 1.14 ± 0.013
47 | AACCTGGTAT | 1.01 ± 0.035
48 | AACCTTAGTC | 1.1 ± 0.045
49 | AACGAAAAAG | 1.12 ± 0.18
50 | AACGAAAATG | 0.997 ± 0.053

Row | Sequence | switch fluorescence ratio
51 | AACGAAGGTA | 0.9884 ± 0.0011
52 | AACGACTATG | 1.05 ± 0.029
53 | AACGAGGAGT | 1.01 ± 0.0058
54 | AACGAGGGGA | 0.9716 ± 0.0045
55 | AACGAGTGAC | 1.04 ± 0.019
56 | AACGAGTGAG | 1.01 ± 0.023
57 | AACGAGTGGG | 1.03 ± 0.019
58 | AACGCATAGG | 1.176 ± 0.0078
59 | AACGCATATT | 1.85 ± 0.78
60 | AACGCCATGC | 2.68 ± 0.38
61 | AACGCTCGTC | 1.02 ± 0.06
62 | AACGGAAAGG | 1.01 ± 0.017
63 | AACGGGAATT | 1.039 ± 0.0056
64 | AACGGGGAAG | 0.995 ± 0.022
65 | AACGGGGGGT | 0.997 ± 0.033
66 | AACGGGGTAG | 0.983 ± 0.034
67 | AACGGGTTAT | 0.995 ± 0.032
68 | AACGGGTTGG | 0.998 ± 0.047
69 | AACGGTAAAT | 1.01 ± 0.085
70 | AACGGTAGGT | 1.01 ± 0.018
71 | AACGGTCTTT | 0.997 ± 0.014
72 | AACGTATGTG | 0.937 ± 0.025
73 | AACGTGGCGG | 0.988 ± 0.018
74 | AACGTGGGGC | 1.01 ± 0.05
75 | AACGTGTATT | 1.1 ± 0.12

Row | Sequence | switch fluorescence ratio
76 | AACGTTATGC | 1.13 ± 0.069
77 | AACGTTTAAA | 1.04 ± 0.1
78 | AACGTTTTCC | 1.23 ± 0.1
79 | AACTAATTCA | 0.99298 ± 0.00078
80 | AACTACAACG | 1.05 ± 0.018
81 | AACTAGTCAA | 1.015 ± 0.0081
82 | AACTAGTGGC | 0.998 ± 0.049
83 | AACTAGTGGG | 1.02 ± 0.024
84 | AACTCATTCA | 1.02 ± 0.025
85 | AACTGAGAAG | 0.988 ± 0.015
86 | AACTGAGTGC | 1 ± 0.043
87 | AACTGGGGTG | 1.03 ± 0.03
88 | AACTGGTGTC | 1.006 ± 0.003
89 | AACTTACTTT | 1.13 ± 0.021
90 | AACTTCAGCT | 0.995 ± 0.03
91 | AACTTGGCTT | 0.969 ± 0.035
92 | AACTTTTATG | 1 ± 0.026
93 | AACTTTTTAT | 1.04 ± 0.042
94 | AACTTTTTGG | 0.99 ± 0.013
95 | AAGAAAGGGC | 1 ± 0.041
96 | AAGAAAGTGG | 0.993 ± 0.034
97 | AAGAAGACGG | 1.23 ± 0.35
98 | AAGAAGTAGG | 1 ± 0.062
99 | AAGAAGTCCT | 0.983 ± 0.034
100 | AAGAATGCGG | 0.988 ± 0.027

Row | Sequence | switch fluorescence ratio
101 | AAGAATGGCC | 0.954 ± 0.0032
102 | AAGAATGTGT | 0.978 ± 0.056
103 | AAGAATTGCG | 0.97 ± 0.033
104 | AAGACGAGTT | 0.9962 ± 0.0022
105 | AAGACGGGTT | 1.02 ± 0.077
106 | AAGACTGAGG | 0.956 ± 0.026
107 | AAGACTTTTT | 1.025 ± 0.0076
108 | AAGAGAACTT | 0.993 ± 0.013
109 | AAGAGAGAGC | 0.989 ± 0.007
110 | AAGAGAGGGT | 0.998 ± 0.042
111 | AAGAGCACT | 1.05 ± 0.048
112 | AAGAGGATGG | 0.979 ± 0.011
113 | AAGAGGCCCC | 0.9991 ± 0.0067
114 | AAGAGGGGAT | 0.985 ± 0.031
115 | AAGAGGGGCG | 1.022 ± 0.0032
116 | AAGAGGGTAA | 0.963 ± 0.012
117 | AAGAGGTAAA | 0.972 ± 0.025
118 | AAGAGGTTGC | 0.99 ± 0.044
119 | AAGAGTACAT | 0.993 ± 0.034
120 | AAGAGTGCGG | 0.9742 ± 0.0074
121 | AAGAGTGGCT | 1.03 ± 0.017
122 | AAGAGTTGTA | 1.01 ± 0.019
123 | AAGATGAGCT | 1.004 ± 0.0043
124 | AAGATGCTTA | 0.9863 ± 0.0012
125 | AAGATGGTGG | 1.004 ± 0.0057

Row | Sequence | switch fluorescence ratio
126 | AAGATTATGG | 0.984 ± 0.035
127 | AAGATTGCTT | 0.9874 ± 0.0032
128 | AAGATTTGGG | 0.991 ± 0.027
129 | AAGCAGAGGC | 1.004 ± 0.0031
130 | AAGCAGGCGG | 1.02 ± 0.021
131 | AAGCAGGGGT | 0.982 ± 0.074
132 | AAGCCAAGGT | 1.033 ± 0.0084
133 | AAGCCAGGGG | 1.46 ± 0.0077
134 | AAGCCATCCG | 1.07 ± 0.04
135 | AAGCCCGACG | 1.13 ± 0.11
136 | AAGCCCGAGG | 0.981 ± 0.02
137 | AAGCCGCTCG | 1 ± 0.015
138 | AAGCCGGAGC | 1.02 ± 0.053
139 | AAGCCGTTTG | 1.07 ± 0.088
140 | AAGCGAAAAA | 1.01 ± 0.092
141 | AAGCGAAAGA | 1.03 ± 0.014
142 | AAGCGCGACG | 0.991 ± 0.027
143 | AAGCGGAGCC | 0.966 ± 0.023
144 | AAGCGGGAGG | 1.02 ± 0.011
145 | AAGCGGGCCT | 1.02 ± 0.026
146 | AAGCGTAGAT | 1.009 ± 0.0074
147 | AAGCGTTAGC | 1.01 ± 0.014
148 | AAGCGTTGAG | 1.009 ± 0.0045
149 | AAGCGTTGTA | 1.01 ± 0.02
150 | AAGCTCGACG | 0.9695 ± 0.0026

Row | Sequence | switch fluorescence ratio
151 | AAGCTCGCCG | 0.981 ± 0.06
152 | AAGCTGGGAC | 1.08 ± 0.015
153 | AAGCTGGGGG | 0.969 ± 0.033
154 | AAGCTGGTG | 1.09 ± 0.042
155 | AAGGAAAAAC | 1.03 ± 0.029
156 | AAGGAAACGT | 1.04 ± 0.039
157 | AAGGAATAGT | 1.01 ± 0.026
158 | AAGGAATCGC | 1 ± 0.027
159 | AAGGAATGCA | 0.993 ± 0.022
160 | AAGGACGGCC | 0.998 ± 0.026
161 | AAGGAGAATA | 1.03 ± 0.012
162 | AAGGAGCTAT | 1.05 ± 0.026
163 | AAGGAGGGGG | 1.02 ± 0.058
164 | AAGGAGGGTA | 1.01 ± 0.038
165 | AAGGAGTTGT | 0.951 ± 0.05
166 | AAGGAGTTTG | 0.969 ± 0.045
167 | AAGGATCTGC | 0.967 ± 0.052
168 | AAGGATGAGG | 0.987 ± 0.021
169 | AAGGATGTAA | 0.995 ± 0.03
170 | AAGGATGTTT | 0.9824 ± 0.0033
171 | AAGGCAAATT | 0.986 ± 0.026
172 | AAGGCAAGTC | 1.13 ± 0.091
173 | AAGGCACTTT | 1.02 ± 0.013
174 | AAGGCAGATC | 1.05 ± 0.037
175 | AAGGCAGGTC | 1.02 ± 0.029

Row | Sequence | switch fluorescence ratio
176 | AAGGCCCTGA | 0.994 ± 0.012
177 | AAGGCGAGGA | 1.043 ± 0.0043
178 | AAGGCGCTCT | 0.997 ± 0.014
179 | AAGGCGGATT | 1.26 ± 0.36
180 | AAGGCTGAGG | 0.985 ± 0.018
181 | AAGGCTGCGA | 1.018 ± 0.0076
182 | AAGGGAAGGG | 0.998 ± 0.025
183 | AAGGGAAGT | 1.02 ± 0.034
184 | AAGGGAATTA | 0.986 ± 0.015
185 | AAGGGACAAA | 1.04 ± 0.014
186 | AAGGGACGTG | 0.984 ± 0.019
187 | AAGGGAGAAA | 0.984 ± 0.06
188 | AAGGGAGAGA | 1.02 ± 0.011
189 | AAGGGAGCTG | 1.02 ± 0.15
190 | AAGGGAGGGA | 1.01 ± 0.036
191 | AAGGGATACG | 1.02 ± 0.015
192 | AAGGGATAGG | 0.9844 ± 0.001
193 | AAGGGATTGC | 0.995 ± 0.053
194 | AAGGGCAAAT | 0.978 ± 0.015
195 | AAGGGCCAAT | 1 ± 0.022
196 | AAGGGCCCGT | 1.02 ± 0.022
197 | AAGGGCGCAG | 0.993 ± 0.056
198 | AAGGGCTATA | 1.01 ± 0.047
199 | AAGGGCTGCG | 0.98 ± 0.1
200 | AAGGGCTTCT | 1.01 ± 0.018
